# From FireProtDB (doi:10.1074/jbc.m707838200)
# Values joined by “and” are separate entries in the source; they are usually repeats but may differ in a detail not shown here. Identical values can stand only once.
# B1: wild type, Q9EYL5 (protein)
# chain: MTKKLLTLFIVSMLILTACGKKESATTSSKNGKPLVVVYGDYKCPYCKELDEKVMPKLRKNYIDNHKVEYQFVNLAFLGKDSIVGSRASHAVLMYAPKSFLDFQKQLFAAQQDENKEWLTKELLDKHIKQLHLDKETENKIIKDYKTKDSKSWKAAEKDKKIAKDNHIKTTPTAFINGEKVEDPYDYESYEKLLKDKIK
# Settings: Staphylococcus aureus; pH 7; 25 °C; Thermal; CD; Hepes-NaOH 20 mM; NaCl 170 mM; reversible: Yes; whole UniProt chain shown
protein,measurement,value
B1,unfolding free energy,7.19 kcal/mol and 7.14 kcal/mol
